Results on 10 molecules are retold here after patent US20060257938A1, “Method of screening for drugs that block ligand binding to a lipid binding protein” (priority 2005, published 2006).

Format in all cases: binding
Assay [1] is described as follows: Probe fluorescence ratio response to arachidonic acid relative to ADIFAB2. The conditions noted are these: for DR/DR AA: arachidonic acid, response relative to ADIFAB2; for DR/DRAD2 AA: Table 3, Arachidonic acid. In short, it runs like this: (§1)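 Fluorescently labeled rat intestinal FABP variants were read at two emission wavelengths, near the unbound maximum (about 420 to 480 nm) and the FFA-bound maximum (about 495 to 580 nm). R = Fλ1/Fλ2 after subtracting probe-free intensity; ΔR = R+agent − R0, normalized to ADIFAB2 (rI-FABP-L72A).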

Assay [2] in a line: Probe fluorescence ratio response to linolenic acid relative to ADIFAB2. The conditions noted are these: for DR/DR LNA: response relative to ADIFAB2; for DR/DRAD2 LNA: Table 3. The method, boiled down: as §1
A short description of assay [3]: Probe fluorescence ratio response to linoleic acid relative to ADIFAB2. Conditions: for DR/DR LA: response relative to ADIFAB2; for DR/DRAD2 LA: Table 3. In short, it runs like this:
as §1

Assay [4] can be described thus: Probe fluorescence ratio response to oleic acid relative to ADIFAB2. The conditions noted are these: for DR/DR OA: response relative to ADIFAB2; for DR/DRAD2 OA: Table 3. The method, boiled down: as §1
Assay [5] can be described thus: Probe fluorescence ratio response to palmitic acid relative to ADIFAB2. The conditions noted are these: for DR/DR PA: response relative to ADIFAB2; for DR/DRAD2 PA: Table 3. The method, boiled down:
as §1

B1: 11M, 72A (protein, listed as Rattus norvegicus)
chain: AFDGTWKVDRMENYEKFMEKMGINVVKRKLGAHDNLKLTITQEGNKFTVKESSNFRNIDVVFELGVDFAYSAADGTELTGTWTMEGNKLVGKFKRVDNGKELIAVREISGNELIQTYTYEGVEAKRIFKKE
modifications: PEPTIDE (1)...(131) wild-type rat intestinal fatty acid binding protein
Regarding B1, the “DR/DR AA” value in assay [1] was determined as 0.697. Further, the “DR/DR LNA” value in assay [2] amounted to 0.651. For the same molecule, in assay [3], the “DR/DR LA” value was found to be 0.576. Further, the “DR/DR OA” value in assay [4] worked out at 0.463. The “DR/DR PA” value in assay [5] stood at 0.543.

B2: 104F, 72A (protein, listed as Rattus norvegicus)
chain: AFDGTWKVDRNENYEKFMEKMGINVVKRKLGAHDNLKLTITQEGNKFTVKESSNFRNIDVVFELGVDFAYSAADGTELTGTWTMEGNKLVGKFKRVDNGKELIFVREISGNELIQTYTYEGVEAKRIFKKE
modifications: PEPTIDE (1)...(131) wild-type rat intestinal fatty acid binding protein
Regarding B2, the “DR/DR AA” value in assay [1] was 0.686. Besides, the “DR/DR LNA” value in assay [2] turned out to be 0.436. Besides, the “DR/DR LA” value in assay [3] came out at 0.486. Moreover, the “DR/DR OA” value in assay [4] is 0.462. For the same molecule, in assay [5], the “DR/DR PA” value is given as 0.263.

B3: R106W, L72A: FABP probe clone, substitutions R106W, L72A vs SEQ ID NO: 2 (protein, listed as Rattus norvegicus)
chain: AFDGTWKVDRNENYEKFMEKMGINVVKRKLGAHDNLKLTITQEGNKFTVKESSNFRNIDVVFELGVDFAYSAADGTELTGTWTMEGNKLVGKFKRVDNGKELIAVWEISGNELIQTYTYEGVEAKRIFKKE
modifications: PEPTIDE (1)...(131) wild-type rat intestinal fatty acid binding protein
B3: the “DR/DRAD2 AA” value in assay [1] turned out to be 1.11. Further, in assay [2], the “DR/DRAD2 LNA” value was determined as 1.03. The “DR/DRAD2 LA” value in assay [3] is reported as 1.04. Besides, the “DR/DRAD2 OA” value in assay [4] is on record as 0.99. Also, the “DR/DRAD2 PA” value in assay [5] was determined as 0.41.

B4: A73I, L72A: FABP probe clone, substitutions A73I, L72A vs SEQ ID NO: 2 (protein, listed as Rattus norvegicus)
chain: AFDGTWKVDRNENYEKFMEKMGINVVKRKLGAHDNLKLTITQEGNKFTVKESSNFRNIDVVFELGVDFAYSAIDGTELTGTWTMEGNKLVGKFKRVDNGKELIAVREISGNELIQTYTYEGVEAKRIFKKE
modifications: PEPTIDE (1)...(131) wild-type rat intestinal fatty acid binding protein
Turning to B4, the “DR/DRAD2 AA” value in assay [1] is reported as 0.38. Further, in assay [2], the “DR/DRAD2 LNA” value came out at 0.03. Besides, in assay [3], the “DR/DRAD2 LA” value is reported as −0.04. In addition, the “DR/DRAD2 OA” value in assay [4] was −0.04. The “DR/DRAD2 PA” value in assay [5] is −0.04.

B5: 23Y, 72A (protein, listed as Rattus norvegicus)
chain: AFDGTWKVDRNENYEKFMEKMGYNVVKRKLGAHDNLKLTITQEGNKFTVKESSNFRNIDVVFELGVDFAYSAADGTELTGTWTMEGNKLVGKFKRVDNGKELIAVREISGNELIQTYTYEGVEAKRIFKKE
modifications: PEPTIDE (1)...(131) wild-type rat intestinal fatty acid binding protein
With B5, the “DR/DR AA” value in assay [1] is on record as 0.492. In assay [2], the “DR/DR LNA” value was 0.443. Moreover, the “DR/DR LA” value in assay [3] amounted to 0.442. The “DR/DR OA” value in assay [4] was determined as 0.412. In addition, the “DR/DR PA” value in assay [5] turned out to be 0.281.

B6: L78F, L72A: FABP probe clone, substitutions L78F, L72A vs SEQ ID NO: 2 (protein, listed as Rattus norvegicus)
chain: AFDGTWKVDRNENYEKFMEKMGINVVKRKLGAHDNLKLTITQEGNKFTVKESSNFRNIDVVFELGVDFAYSAADGTEFTGTWTMEGNKLVGKFKRVDNGKELIAVREISGNELIQTYTYEGVEAKRIFKKE
modifications: PEPTIDE (1)...(131) wild-type rat intestinal fatty acid binding protein
For B6, the “DR/DRAD2 AA” value in assay [1] was 2.04. Besides, the “DR/DRAD2 LNA” value in assay [2] is recorded as 2.05. Moreover, the “DR/DRAD2 LA” value in assay [3] stood at 2. Further, in assay [4], the “DR/DRAD2 OA” value amounted to 1.83. In addition, in assay [5], the “DR/DRAD2 PA” value came to 0.91.

B7: 55Q, 72A (protein, listed as Rattus norvegicus)
chain: AFDGTWKVDRNENYEKFMEKMGINVVKRKLGAHDNLKLTITQEGNKFTVKESSNQRNIDVVFELGVDFAYSAADGTELTGTWTMEGNKLVGKFKRVDNGKELIAVREISGNELIQTYTYEGVEAKRIFKKE
modifications: PEPTIDE (1)...(131) wild-type rat intestinal fatty acid binding protein
Turning to B7, the “DR/DR AA” value in assay [1] was found to be 0.600. The “DR/DR LNA” value in assay [2] amounted to 0.492. Moreover, the “DR/DR LA” value in assay [3] is given as 0.474. Also, in assay [4], the “DR/DR OA” value came to 0.536. The “DR/DR PA” value in assay [5] is recorded as 0.428.

B8: W82F, L72A: FABP probe clone, substitutions W82F, L72A vs SEQ ID NO: 2 (protein, listed as Rattus norvegicus)
chain: AFDGTWKVDRNENYEKFMEKMGINVVKRKLGAHDNLKLTITQEGNKFTVKESSNFRNIDVVFELGVDFAYSAADGTELTGTFTMEGNKLVGKFKRVDNGKELIAVREISGNELIQTYTYEGVEAKRIFKKE
modifications: PEPTIDE (1)...(131) wild-type rat intestinal fatty acid binding protein
For B8, in assay [1], the “DR/DRAD2 AA” value came out at 0.68. The “DR/DRAD2 LNA” value in assay [2] amounted to 0.76. Besides, the “DR/DRAD2 LA” value in assay [3] stood at 1.08. Moreover, in assay [4], the “DR/DRAD2 OA” value is 0.78. The “DR/DRAD2 PA” value in assay [5] came out at 0.41.

B9: 55V, 72A (protein, listed as Rattus norvegicus)
chain: AFDGTWKVDRNENYEKFMEKMGINVVKRKLGAHDNLKLTITQEGNKFTVKESSNVRNIDVVFELGVDFAYSAADGTELTGTWTMEGNKLVGKFKRVDNGKELIAVREISGNELIQTYTYEGVEAKRIFKKE
modifications: PEPTIDE (1)...(131) wild-type rat intestinal fatty acid binding protein
In the case of B9, in assay [1], the “DR/DR AA” value worked out at 0.581. In addition, the “DR/DR LNA” value in assay [2] is on record as 0.477. Besides, the “DR/DR LA” value in assay [3] stood at 0.432. In addition, in assay [4], the “DR/DR OA” value is given as 0.468. The “DR/DR PA” value in assay [5] is reported as 0.374.

B10: D74F, L72A: FABP probe clone, substitutions D74F, L72A vs SEQ ID NO: 2 (protein, listed as Rattus norvegicus)
chain: AFDGTWKVDRNENYEKFMEKMGINVVKRKLGAHDNLKLTITQEGNKFTVKESSNFRNIDVVFELGVDFAYSAAFGTELTGTWTMEGNKLVGKFKRVDNGKELIAVREISGNELIQTYTYEGVEAKRIFKKE
modifications: PEPTIDE (1)...(131) wild-type rat intestinal fatty acid binding protein
As for B10, the “DR/DRAD2 AA” value in assay [1] is 0.44. Further, in assay [2], the “DR/DRAD2 LNA” value stood at 1.04. Further, the “DR/DRAD2 LA” value in assay [3] came out at 0.67. In addition, the “DR/DRAD2 OA” value in assay [4] is reported as 0.51. For the same molecule, the “DR/DRAD2 PA” value in assay [5] is 0.93.
